± gives the uncertainty stated by the source.
B1: Steroid hormone receptor ERR2, residues 100 to 176; numbered along this chain, O95718 (parent)
chain: KRLCLVCGDIASGYHYGVASCEACKAFFKRTIQGNIEYSCPATNECEITKRRRKSCQACRFMKCLKVGMLKEGVRLD

Variants of: B1
Experiment: abundance fitness (aPCA) (normalised: wild type 0, dead -1); higher = more abundant; growth selection in yeast, the domain comes from the species named
Conditions: Homo sapiens

KRLCLVCGDIASGYHYGVASCEACKAFFKRTIQGNIEYSCPATNECEWTKRRRKSCQACRFMKCLKVGMLKEGVRLD [I48W] and KRLCLVCGDIASGYHYGVASCEACKAFFKRTIQGNIEYSCPATNECETTKRRRKSCQACRFMKCLKVGMLKEGVRLD [I48T] are within error of each other in abundance fitness: -0.227 ± 0.13 for the first, -0.159 ± 0.075 for the second.

Compared with KRLCLVCGDIASGYHYGVASCEACKAFFKRTIQGNIEYSCPATNECEVTKRRRKSCQACRFMKCLKVGMLKEGVRLD [I48V], KRLCLVCGDIASGYHYGVASCEACKAFFKRTIQGNIEYSCPATNECECTKRRRKSCQACRFMKCLKVGMLKEGVRLD [I48C] is lower in abundance fitness: 0.007 ± 0.064 for the first, -0.312 ± 0.14 for the second.

KRLCLVCGDIASGYHYGVASCEACKAFFKRTIQGNIEYSCPATNECEATKRRRKSCQACRFMKCLKVGMLKEGVRLD [I48A] and KRLCLVCGDIASGYHYGVASCEACKAFFKRTIQGNIEYSCPATNECEGTKRRRKSCQACRFMKCLKVGMLKEGVRLD [I48G] are within error of each other in abundance fitness: -0.157 ± 0.079 for the first, -0.191 ± 0.066 for the second.

First: KRLCLVCGDIASGYHYGVASCEACKAFFKRTIQGNIEYSCPATNECESTKRRRKSCQACRFMKCLKVGMLKEGVRLD [I48S]
Second: KRLCLVCGDIASGYHYGVASCEACKAFFKRTIQGNIEYSCPATNECEITTRRRKSCQACRFMKCLKVGMLKEGVRLD [K50T]
The abundance fitness of the first is lower: -0.108 ± 0.061 for the first, 0.019 ± 0.059 for the second.

KRLCLVCGDIASGYHYGVASCEACKAFFKRTIQGNIEYSCPATNECEITIRRRKSCQACRFMKCLKVGMLKEGVRLD [K50I] and KRLCLVCGDIASGYHYGVASCEACKAFFKRTIQGNIEYSCPATNECEITQRRRKSCQACRFMKCLKVGMLKEGVRLD [K50Q] are within error of each other in abundance fitness: 0.112 ± 0.065 for the first, 0.142 ± 0.085 for the second.

Going from KRLCLVCGDIASGYHYGVASCEACKAFFKRTIQGNIEYSCPATNECEITYRRRKSCQACRFMKCLKVGMLKEGVRLD [K50Y] to KRLCLVCGDIASGYHYGVASCEACKAFFKRTIQGNIEYSCPATNECEITCRRRKSCQACRFMKCLKVGMLKEGVRLD [K50C], the abundance fitness falls from -0.128 ± 0.084 to -0.51 ± 0.2.

KRLCLVCGDIASGYHYGVASCEACKAFFKRTIQGNIEYSCPATNECEITNRRRKSCQACRFMKCLKVGMLKEGVRLD [K50N] and KRLCLVCGDIASGYHYGVASCEACKAFFKRTIQGNIEYSCPATNECEITFRRRKSCQACRFMKCLKVGMLKEGVRLD [K50F] are within error of each other in abundance fitness: 0.071 ± 0.088 for the first, 0.047 ± 0.07 for the second.

Going from KRLCLVCGDIASGYHYGVASCEACKAFFKRTIQGNIEYSCPATNECEITERRRKSCQACRFMKCLKVGMLKEGVRLD [K50E] to KRLCLVCGDIASGYHYGVASCEACKAFFKRTIQGNIEYSCPATNECEITLRRRKSCQACRFMKCLKVGMLKEGVRLD [K50L], the abundance fitness falls from 0.224 ± 0.088 to -0.088 ± 0.063.

KRLCLVCGDIASGYHYGVASCEACKAFFKRTIQGNIEYSCPATNECEITMRRRKSCQACRFMKCLKVGMLKEGVRLD [K50M] and KRLCLVCGDIASGYHYGVASCEACKAFFKRTIQGNIEYSCPATNECEITVRRRKSCQACRFMKCLKVGMLKEGVRLD [K50V] are within error of each other in abundance fitness: 0.098 ± 0.1 for the first, 0.118 ± 0.062 for the second.

Going from KRLCLVCGDIASGYHYGVASCEACKAFFKRTIQGNIEYSCPATNECEITDRRRKSCQACRFMKCLKVGMLKEGVRLD [K50D] to KRLCLVCGDIASGYHYGVASCEACKAFFKRTIQGNIEYSCPATNECEITARRRKSCQACRFMKCLKVGMLKEGVRLD [K50A], the abundance fitness rises from -0.055 ± 0.093 to 0.126 ± 0.059.

KRLCLVCGDIASGYHYGVASCEACKAFFKRTIQGNIEYSCPATNECEITGRRRKSCQACRFMKCLKVGMLKEGVRLD [K50G] and KRLCLVCGDIASGYHYGVASCEACKAFFKRTIQGNIEYSCPATNECAITKRRRKSCQACRFMKCLKVGMLKEGVRLD [E47A] are the same in abundance fitness: -0.102 ± 0.091 for the first, -0.102 ± 0.056 for the second.

KRLCLVCGDIASGYHYGVASCEACKAFFKRTIQGNIEYSCPATNECYITKRRRKSCQACRFMKCLKVGMLKEGVRLD [E47Y] and KRLCLVCGDIASGYHYGVASCEACKAFFKRTIQGNIEYSCPATNECQITKRRRKSCQACRFMKCLKVGMLKEGVRLD [E47Q] are within error of each other in abundance fitness: -0.184 ± 0.12 for the first, -0.083 ± 0.069 for the second.

Going from KRLCLVCGDIASGYHYGVASCEACKAFFKRTIQGNIEYSCPATNECMITKRRRKSCQACRFMKCLKVGMLKEGVRLD [E47M] to KRLCLVCGDIASGYHYGVASCEACKAFFKRTIQGNIEYSCPATNECVITKRRRKSCQACRFMKCLKVGMLKEGVRLD [E47V], the abundance fitness rises from -0.592 ± 0.15 to -0.14 ± 0.058.

First: KRLCLVCGDIASGYHYGVASCEACKAFFKRTIQGNIEYSCPATNECGITKRRRKSCQACRFMKCLKVGMLKEGVRLD [E47G]
Second: KRLCLVCGDIASGYHYGVASCEACKAFFKRTIQGNIEYSCPATNECDITKRRRKSCQACRFMKCLKVGMLKEGVRLD [E47D]
The abundance fitness of the first is lower: -0.165 ± 0.045 for the first, 0.038 ± 0.082 for the second.

Going from KRLCLVCGDIASGYHYGVASCEACKAFFKRTIQGNIEYSCPATNECIITKRRRKSCQACRFMKCLKVGMLKEGVRLD [E47I] to KRLCLVCGDIASGYHYGVASCEACKAFFKRTIQGNIEYSCPATNECTITKRRRKSCQACRFMKCLKVGMLKEGVRLD [E47T], the abundance fitness rises from -0.476 ± 0.16 to -0.112 ± 0.087.

KRLCLVCGDIASGYHYGVASCEACKAFFKRTIQGNIEYSCPATNECCITKRRRKSCQACRFMKCLKVGMLKEGVRLD [E47C] and KRLCLVCGDIASGYHYGVASCEACKAFFKRTIQGNIEYSCPATNECKITKRRRKSCQACRFMKCLKVGMLKEGVRLD [E47K] are within error of each other in abundance fitness: -0.172 ± 0.11 for the first, -0.155 ± 0.091 for the second.

Compared with KRLCLVCGDIASGYHYGVASCEACKAFFKRTIQGNIEYSCPATNECLITKRRRKSCQACRFMKCLKVGMLKEGVRLD [E47L], KRLCLVCGDIASGYHYGVASCEACKAFFKRTIQGNIEYSCPATNECSITKRRRKSCQACRFMKCLKVGMLKEGVRLD [E47S] is lower in abundance fitness: -0.103 ± 0.061 for the first, -0.229 ± 0.064 for the second.

Compared with KRLCLVCGDIASGYHYGVASCEACKAFFKRTIQGNIEYSCPATNECFITKRRRKSCQACRFMKCLKVGMLKEGVRLD [E47F], KRLCLVCGDIASGYHYGVASCEACKAFFKRTIQGNIEYSCPATNECNITKRRRKSCQACRFMKCLKVGMLKEGVRLD [E47N] is higher in abundance fitness: -0.354 ± 0.13 for the first, -0.09 ± 0.12 for the second.
